Data on 42 variants can be found in the RNAGym collection of RNA variant scans (doi:10.1073/pnas.2313332121).

To fix the notation:
B1: TPR t1 (parent)
chain: GACCAAUCUGCCCUCAGAGCUCGAGAACAUCUUCGGAUGCAGAGGAGGCAGGCUUCGGUGGCGCGAUAGCGCCAACGUCCUCAACCUCCAAUGCAUCCCACCACAUGAUGAUGCCUGAAGAGCCUUGGUUUUUUG

The variants in the data set derive from B1. Kind of data set: polymerase ribozyme fitness, log enrichment relative to wild type (log ratio); higher = more active; in vitro selection for triplet polymerase activity. The procedure, abridged:
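Mutant libraries of both subunits of a heterodimeric triplet polymerase ribozyme were PCR-built, transcribed, and selected once in triplicate, with frozen incubation at −7 °C and capture of gel-excised extended constructs on streptavidin beads before RT-PCR. Illumina sequencing of input and output libraries was filtered to genotypes with ≥10 input reads and ≥1 read per output. Fitness is the logarithm of genotype enrichment over wild-type enrichment, using inverse-variance-weighted replicate averages. The logarithm is base 2.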
Consider GACCAAUCUGCCCUCAGAGCUCGAGAACAUCUUCGGAUGCAGAGGAGGCAGGCUUGCGUGGCGCGAUAGCGCCAACGUCCUCAACCUCCAAGGCAACCCACCACAUGAUGAUGCCUGAAGAGCCUUGGUUUAUUG, for which the “polymerase ribozyme fitness (log ratio)” value was -3.72. The figure for GAUCAAUCUGCCCUCAGAGCUCGAGAACAUCUUCGGAUGCAGAGGAGGCAGGCUUGGGUGGCGCGAUAGCGCCAACGUACUCAACCUCCAAUGCAUCCCACCACAUGAUGAUGCCUGAAGAGCGUUGGUUUUUUG is -0.114; for GACCAAUCUGCCCUCAGAGCUCGAGAACAUCUUCGGAUGCAGAGGAAGCGGGCUUCGGUGGCGCGAUAGCGCCAACGUCCUCAACCUCCAAUGCAUCCCACCACAUGAUGAUACCUGAAGAGCCUUGGUUUUUUG it is -2.34. For GACCAAUCUGCCCUCAGAGCUCGAGAACAUCUUCGGAUGCAGAGGAGGCAUGCAUCGGUGGCGCGAUAGCGCCAACGUCCUCAACCUCCAAUGCAUCCCACCACAUGAUGAUGCCUGAAGAGGCUUGGAUUUUUG, the “polymerase ribozyme fitness (log ratio)” value is -2.43. The figure for GACCAAUCUGCCCUCAGAGCUCGAGAACAUCUUCGGAUGCAGAGGAGGCAGGCUUCGGUGGCGCGAUAGCGCCAACGUCCUCAACCUCCAAUGCAUCCCACCACAUGAUGAUACCUGAAGAGCGUUGGUUUUUUG is -0.302. To GACAAAGCUGCCCUCAGAGCUCGAGAACAUCUUCGGAUGCAGAGGAGGCAGGCUUCGGUGGCGCGAUAGCGCCAACGUCCUCAACCUCCAUUGCAUCCCACCACAUGAUGAUGCCUGAAGAGCCUUGGUUUUUUG belongs -4.91; to GACCAAUCUGCCCUCAGAGCUCGAGAACAUCUUCGGAUGCAAAGGAGGCAGGCUUCGGUGGCGCGAUAGCGCCAACGUCCUCAACCUCCCAUGCAACCCACCACAUGAUGAUGCCUUAAGAGCCUUGGUUUUUUG, -5.05. To GACCAAUCUGCCCUCACAGCUCGAGAACAUCUUCGGAUGCAGAGGAGGCAGGCUUCGGUGGCGCGAUAGCGUCAACGUCCUCAACCUCCAAUGCAUCCCAACACAUGAUGAUGCAUGAAGAGACUUGGUUUUUUG belongs -5.23; to GACCAAUCUGCCCUCAGAGCUCGCGAACAUCUUCGGAUGCAGAGGAGGCAGGCUUCGGUGGCGCGAUAGCGCCAACGUCCUCAACCUCCAAUGCAUCCCACCACAUGAUGAUGCCUGAAGAGCCUUGGUUUUUUG, -6.63.

Regarding GACCAAUCUACCCUCAGAGCUCGAGAACAUCUUCGGAUGCCGAGGAGGCAGGGUUCGGUGGCGCGAUAGCGCCAACGUCCUCAACCUCCAAUGCAUCCCACCACAUGAUGAUGCCUGAAGAGCCUUGGUUUUCUG, the “polymerase ribozyme fitness (log ratio)” value is -1.29. For GACCAAUCUGCCCUCAGAGCUCGAGAACAUCUUCGGAUGCAGAGGAGGCAGGCUUCGGUGGCGCGAUAGCGCCAACGUCCUCAACCUCCAAUGCAUCCCACCACAUGAUGAUGAGUGAAGACCCUUUGUUUUUUG, the “polymerase ribozyme fitness (log ratio)” value is -5.32.

Consider GACCAUUCUGCCCUCAGAGCUCGAGAACAUCUUCGGAUGCAGAGGAGGCAGGCUUCGGUGGCGCGGUAGCGCCAACGUCCUCAAGCUCCAAUGCAUCCCACCACAUGAUGAUGCCUGAAGAGCCUUGGUUUUUUG, for which the “polymerase ribozyme fitness (log ratio)” value was -2.09. To GACCAAUGUGCCCUCAGAGCUCGAGAACAUCUUCGGAUGCAGAGGAGGCAGGCUUCGGUUGCGCGAUAGCGCCAACGUCCACAACCUCCAAUGCAUCCCACCACAUGAUGAUGCCUGAAGAGACUUGGUUUUUUG belongs 1.75; to GACCAAUCUGCCCUCAGAGCUCGAGAACAUCUUCGGAUGCAGAGAAGGCAGGCUUCGGUGGCGCGAUAGGGCCAACGUCCUCAACCUCCAAUGCAUCCCACCACAUGAUGAUGCCUGAAGAGCCUUGGUUUUUUG, -3.56. To GACCAAUCUGCCCUCAGAGCUCGAGAACAUCUUCGGAUGCAGAGGAGGCAGCCUUCGGUGGCGCGAUAGCGCCAACGUCCUCAACCUCCAAUGCAUCCCACCACAUGAUGAUGCCUGAAGAGCCUUGGUUUAUUG belongs -1.09; to GACCAAUCUGCCCUCAGAGCUCGAGAACAUCUUCGGAUGCAGAGGAGGCAGGCUUUGGUGGCGCGAUAGCGCCAACGUCCUCAACCUCUAAUGCAUCCCACCACAUGAUGAUGCCCGAAGAGCCUUAGUUUUUUU, -3.61. The figure for GACCAAUCUGCCCUCAGAGCUCGAGAACAUCUUCGGAUGCAGAGGAGGCAGGCUUCGGUGGCACGAUAGCGCCAACGUCCUCAACCGCCAAUGCUUCCCACCACAUGAUGAUGCCUGAAGAGCCUUGGUUUUUUG is -1.19; for GACCAAUCUGCCCUCAGAGCUCGAGAACAUCUUCGGAUUCAGAGGAGGCAGGCUUCGGUGGCUCGAUAGCGCCAACGUCCUCAACCUCCAAUGCAUCCCACCACAUGAUGAUACCUGAAGAGCCUUGGUUUUUUG it is -3.09; for GACCAAUCUGCCCUCAGAGCUCGAGAACAUCUUCGGAUGCAGAGGAGGCAGGCUUCGGAGGCGCGAUAGCGCCAACGUCCUCAACCUCUAAUGCAUCCCACCACAUGAUGAUGCCUGAAGAGCCUUGGUUUUUUG it is -0.0389. GACCAAUCUGCCCUCAGAGCUCGAGAACAUCUUCGGAUGCAGAGGAGGAAGACUUCGGUGGCGCGAUAGCGCCAACGUCCUCAACCUCCAAUGCAUCCCACCACAUGAUGAUGCCUGAAGAGCCUUGGUUUUUUG: the “polymerase ribozyme fitness (log ratio)” value is -0.855. The figure for GACCAAUCUGCCCUCAGAGCUCGAGAACCUCUUCGGAUGCAGAGGAGGCAGGCUUCGGUGACGCGAUAGCGCCAACGUCCUCAACCUGCAAUGCAUCCCACCACAUGAUGAUGGCUGAAGAGCCUUGGUUUUUUG is -6.84; for GACCAAUCUGCCCUCAGAGCUCGAGAACAUCUUCGCAUGCAGAGGAGGUAGGCUUCGGUGGCGCGAUAGCGCCAACGUCCUCAACCUCCAAUGCAUCCCACCACAUGAUGAUGCCUGAAGAGCCUUGGUUUUUUG it is -1.18. To GACCAAUCUGCCCUCAGAGCUCGAGAACAUCUUCGGAUGCAGAGGAGGCAGGCUUCGGUGGCGCGAUAGCGCCAACGUCCUCAACCUCCAAUGCAUCCCACCAGAUGAUGAUGCCUGAGGAGCCUUGGUUUUUUG belongs -6.88; to GACCAAUCUGCCCUCAGAGCUCGAGAACAUCUUCGGAUGCAGAGGAGGCAGGCUUCGGUGGCGCGAUAGCGCCAACGUCCUCAACCUCCAAUGCAUUCCACCAUAUGAUGUUGCCUGAAGAGCAUUGGUUUUUUG, -2.15; to GACCAAUCUGCCCUCAGAGCUCGAGAACAUCUUCGGAUGCAGAGGAAGCAGGCUUCGGUGUCGCGAUAGCGCCAACGUCCUCAACCUCCAAUGCAUCCCACCACAUGAUGAUGCCUGAAUAGCCUUAGUUUUUUG, -0.871. The figure for GACCCAUCUGCCCUCAGAGCUCGAGAACAUCUUCGGAUGCAGAGGAGGCAGGCUUCGGUGGCGCGAUAGCGCCAACGUCCUCAACCUCCAUUGCAUCCCACCACAUGAUGAUGCCUGAAGAGCCUUGGUUUUUUG is -2.68. GACCAAUCUGCCCUCAGAGCACGGGAACAUCUUCGGAUGCAGAGGAGGCAGGCUUCGGUGGCGCGAUAGCGCCAACGUCCUCAACCUCCAAUGCAUCCCACCACAUGAUGAUGCCUGAAGAGCCUUGGUUUUUUG: the “polymerase ribozyme fitness (log ratio)” value is -1.64. To GACCAAUCUGCCCUCAGAGCUCGAGAACAUCUUCGGAUGCAGAGGAGGCAGGCUUCGGUGGCGCGAUAGCGCCAACGCCCUCAACCUCCAAUGCAUCCCACCACAUGAUGAUGCGUGAAGAGCCUUGGUUUUAUG belongs -1.97; to GACCAAUCUGCGCUCAGAGCUCGAGAACACCUUCGGAUGCAGAGGAGGCAGGCUUCGGUGGCGCGAUAGCGCCAACGUCCUCAACCUCCAAUGCAUCCCACCACAUGAUGAUGCCUGAAGAGCCUUGGUUUUUUG, -2.82; to GAGCAAUCUGCCCUCAGAGCUCGAGAACAUCUUCGGAUGCAGAGGAGGCAGGCUUCGGUGGCGCGAUAGCGCCAACGUCCUUAACCUCCAAUGCAUCCCACCACAUGAUGAUGCCUGAAGAGCCUUGGUUUUUUG, -1.74. For GACCAAACUGCCCUCGGAGCUCGAGAACAUCUUCGGAUGCAGAGGAGGCAGGCUGCGGUGCCGCGAUAGCGCCAACGUCCUUAACCUCCAAUGCAUCCCACCACAUGAUGAUGCCUGAAGAGCCUUGGUUUUUUG, the “polymerase ribozyme fitness (log ratio)” value was -1.41. Regarding GACCAAUCUGCCCUCAGAGCUCGAGAACAUCUUCGGAUGCAGAGGAGGCAGGCUUCGGUGGCGCGAUAGCGCCAACGUCCUCAACCUGCACUGCAUCCCACCACAUGAUGAUGCCUGAAGAGCCUUGGUUUUUUG, the “polymerase ribozyme fitness (log ratio)” value is -2.11. For GACCAAUCUGCCCUCAGAGCUCGGGAACAUCUUCGGAUGCAGAGGAGGCAGACUUCGGUGGCGCGAUAGCGCCAACGUCCUCAACCUCCAGUGCAUCCCACCACAUGAUGAUGCCUGAAGAGCCUUGGUUUUUUG, the “polymerase ribozyme fitness (log ratio)” value is -3.17.

In the case of GACCAAUCUGCCCUCAGAGCUCGAGAACAUCUUCGGAUGCAGAGGAGGCAGGCUCCAGUGGCGCGAUAUCGCCAACGUCCUCAACCUCUAAUGCAUCCCACCACAUGAUUAUGCCUGAAGAGCCUUGGAUUUUUG, the “polymerase ribozyme fitness (log ratio)” value was -3.64. The figure for GACCAUUCUGCCCUCAGAGCUCGAGAACAUCUUCGGAUGCAGAGGAGGCAGGCUUCGGUGGCGCGAUAGCGCCAACGUCCUCAACCUCCACUGCAUCCCACCACAUGAUGAUGCCUGAAGAGCCUUGGUUUUUUG is -1.21.

In the case of GACCAAUCUGCCCUCAGAGCUCGAGAACAUCUUCGGAUGUAGAGUAGGCAGGCUACGGUGGCGCGAUAGCGCUAACGUCCUCAACCUCCAAUGCAUCCCACCACAUGAUGAUGCCUGAAGAGCCUUGGUUUUUUG, the “polymerase ribozyme fitness (log ratio)” value was -1.76. The figure for GACCAAUCUGCCCUCAGAGCUCGAGAACAUCUCCGGAUGCAGAGGAGGCAGGCUUCGGUGGCGCGAUAGCGCCAACGUCCUCAACCUCCAAUGCAUCCCACCACAUGAUGAUGCCUGAAGAGCCUUGGUUUUUUG is -3.31; for GACCAAUCUGCCCUCAGAGCUCGAGAACAUCUUCGGAUGCAGAGGAGGCAGGCUUCGGUGGCGCGAUAGCGCCAACGUCCUCAACCUCCAAUGCAUCCUACCACAUGAUGAUGCCUGAAUAGCCUUGGUUUUUUG it is -3.34; for GACCAAUAUGCCCUCAGUGCUCGAGAACAUCUUCGGAUGCAGAGCAGGCAGGCUUCGGUGGCGCGAUAGCGCCAUCGUCCUCAACCUCCAAUGCAUCCCACCACAUGAAGAUGCCUGAAGAGCCUUGGUUUUUUG it is -6.43. To GACCAAUCUGCCUUCAGAGGUCGAGAACAUCUUCGGAUGCAGAGGAGGCAGGCUUCGGUGGGGCGAUAGCGCCAACGUCCUCAACCUCCAAUGCAUCCCACCAAAUGAUUAUGCCUGAAGUGCCUUGGUUUUUUG belongs -6.79. To GACCAAUCUGCCCUCAGAGCUCGAGAACAUCUUCGGAUGCAGAGGAGGCAGGCUUCGGUGGCGCGAUAGCUCCAACGUCCUCAACCUCCAAUGCAUCCUACCACAUGAUGAUGCAUGAAGAGCCUUGGUUUUUUG belongs -2.82; to GACCAAUCUGCCCUCAGAGCUCGAGAACAUCUUCGGAUGCAGAGGAGGCAGGGUUCGGUGGCUCGAUAGCGCCAACGUCCUCAACCUCCAAUGCAUCCCACCACAUGAUGAUGCCUGAAGAGCCUUGGUUUUUUG, -2.05.
